{
  "source": "patent US10314925B2",
  "about": "“Thymidine kinase” (priority 2004, dated 2019)",
  "molecules": {"B1": {"name": "TkMut2 (nucleic acid)", "DNA": "ATGGCTTCGTACCCCTGCCATCAACACGCGTCTGCGTTCGACCAGGCTGCGCGTTCTCGCGGCCATAGCAACCGACGTACGGCGTTGCGCCCTCGCCGGCAGCAAGAAGCCACGGAAGTCCGCCTGGAGCAGAAAATGCCCACGCTACTGCGGGTTTATATAGACGGTCCTCACGGGATGGGGAAAACCACCACCACGCAACTGCTGGTGGCCCTGGGTTCGCGCGACGATATCGTCTACGTACCCGAGCCGATGACTTACTGGCAGGTGCTGGGGGCTTCCGAGACAATCGCGAACATCTACACCACACAACACCGCCTCGACCAGGGCGAGATATCGGCCGGGGACGCGGCGGTGGTAATGACAAGCGCCCAGATAACAATGGGCATGCCTTATGCCGTGACCGACGCCGTTCTGGCTCCTCATGTCGGGGGGGAGGCTGGGAGTTCACATGCCCCGCCCCCGGCCCTCACCCTCATCTTCGACCGCCATCCCATCGCCGCCCTCCTGTGCTACCCGGCCGCGCGATACCTTATGGGCAGCATGACCCCCCAGGCCGTGCTGGCGTTCGTGGCCCTCATCCCGCCGACCTTGCCCGGCACAAACATCGTGTTGGGGGCCCTTCCGGAGGACAGACACATCGACCGCCTGGCCAAACGCCAGCGCCCCGGCGAGCGGCTTGACCTGGCTATGCTGGCCGCGATTCGCCGCGTTTACGGGCTGCTTGCCAATACGGTGCGGTATCTGCAGGGCGGCGGGTCGTGGTGGGAGGATTGGGGACAGCTTTCGGGGACGGCCGTGCCGCCCCAGGGTGCCGAGCCCCAGAGCAACGCGGGCCCACGACCCCATATCGGGGACACGTTATTTACCCTGTTTCGGGCCCCCGAGTTGCTGGCCCCCAACGGCGACCTGTATAACGTGTTTGCCTGGGCCTTGGACGTCTTGGCCAAACGCCTCCGTCCCATGCACGTCTTTATCCTGGATTACGACCAATCGCCCGCCGGCTGCCGGGACGCCCTGCTGCAACTTACCTCCGGGATGGTCCAGACCCACGTCACCACCCCAGGCTCCATACCGACGATCTGCGACCTGGCGCGCACGTTTGCCCGGGAGATGGGGGAGGCTAACTGA", "modifications": "HSV-1 thymidine kinase mutant sequence."}},
  "key": {"HSV-tk [1]": {"system": "HSV-tk", "test": "PCR of genomic DNA from transduced CEM A301 cells", "assay_type": "cell-based, HSV-1", "experimental": "(§1) CEM A301 cells were cultured in RPMI 1640 (Hyclone) supplemented with 10% FBS (Hyclone) and 2 mM glutamine. CEM A301 cells were infected with Am12 culture supernatant containing SFCMM-3 HSV-tk mutants 2 and 234. The day before transduction 5×10^5 cells/ml were cultured. Transduction was then performed by one centrifugation cycle of retroviral vector particles on cells. After the transduction phase, cells were collected and the percentage of actually transduced cells evaluated by FACS analysis. PBLs from three different donors were transduced (as described in Materials and Methods section of Example 2) with Am12 supernatant containing SFCMM-3 HSV-tk mutant 2 as well as SFCMM-3.\n(§2) The transduced cells were then sorted for ΔLNGFR expression and expanded a few days in culture.\nOne pellet for PCR analysis was prepared from the transduced non selected cells as well as from transduced selected cells as described in Materials and Methods section of Example 2. Genomic DNA was extracted from pellet cells and PCR reaction was carried out with TKA1 and TKB1 or TKY1 and TKY2 or TKZ1 and TKZ2 primers (as indicated in the table below) in a 25 μl reaction mixture containing 100-500 ng of genomic DNA, 1×PCR Buffer with 1.5 mM of MgCl2 (Applied Biosystems), […] of each dNTPs, 300 nM of each primer, 1.25 Units of AmpliTaq Gold (Applied Biosystems). The PCR cycling profile consisted of a first denaturation step for 15 min at 94° C. followed by 40 cycles with denaturation for 30 s at 94° C., annealing for 50 s at 60° C. and extension for 1 min at 72° C., and one final extension step of 10 min at 72° C., […] Ten microliters of amplified product were analyzed by agarose gel electrophoresis."}, "HSV-tk [2]": {"system": "HSV-tk", "test": "PCR of genomic DNA from transduced PBLs of three donors", "assay_type": "cell-based, HSV-1", "conditions": "TKA1/TKB1 primers", "experimental": "as §1, §2\nOne pellet for PCR analysis was prepared from the transduced non selected cells as well as from transduced selected cells as described in Materials and Methods section of Example 2. […] Ten microliters of amplified product were analyzed by agarose gel electrophoresis."}, "HSV-tk [3]": {"system": "HSV-tk", "test": "RT-PCR of HSV-tk mutants, RNA from Am12 supernatants", "set-up": "species or system HSV-1", "source_text": "After sequence confirmation of SFCMM-3 HSV-tk mutants (FIGS. 1A-1C), one plasmid clone of each type was used to transiently transfect E86 cells. SFCMM-3 and TK3 plasmids were used as controls. The supernatant was collected from the E86 cultures and used to stably transduce the amphotropic packaging cell line Am12 as described in Materials and Methods section of Example 2. The resulting cell populations were selected for ΔLNGFR expression.\nRNA was extracted from the E86 as well as Am12 culture supernatants containing infectious retroviral particles. RT-PCR reactions were carried out on RNA from E86 and Am12 supernatants using TKA1 and TKB1 primers according to the protocol described in Materials and Methods section of Example 2."}},
  "data": [
    {"molecule": "B1", "values": [
      {"measurement": "lower band (spliced form of HSV-tk gene)", "setting": "HSV-tk [1]; CEM A301, TKA1/TKB1 primers, before and after selection", "value": "No lower band is observed"},
      {"measurement": "lower band (spliced form of HSV-tk gene)", "setting": "HSV-tk [1]; CEM A301, TKY1/TKY2 and TKZ1/TKZ2 primers", "value": "No lower band is observed"},
      {"measurement": "lower band (spliced form of HSV-tk gene)", "setting": "HSV-tk [2]", "value": "No lower band is observed"},
      {"measurement": "additional bands", "setting": "HSV-tk [3]", "value": "two very weak bands of approximately 100 and 200 bp are detected"},
      {"measurement": "lower band (spliced form)", "setting": "HSV-tk [3]; TKA1/TKB1 primers", "value": "not detected"}
    ]}
  ]
}
